Values of other authors, collected in article PMC7618755.

Assays:
[1] = target: PD-L1 (Homo sapiens) (UniProt Q9NZQ7)
[2] = target: CD80 (Homo sapiens) (UniProt P33681)

Chain of UniProt Q9NZQ7 (Q9NZQ7 19-238): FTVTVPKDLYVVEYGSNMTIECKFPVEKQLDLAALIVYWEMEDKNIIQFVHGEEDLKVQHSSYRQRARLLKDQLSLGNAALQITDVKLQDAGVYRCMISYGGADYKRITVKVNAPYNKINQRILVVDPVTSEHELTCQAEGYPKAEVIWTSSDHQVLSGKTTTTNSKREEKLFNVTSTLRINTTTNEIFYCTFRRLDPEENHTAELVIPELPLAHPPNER

For CD80 (from UniProt P33681), which Kd [1] is on record?
The Kd was 20 µM.

And the Kd [2]?
The Kd was 35 µM.
